Drawing on US20150344570A1 (published 2015), this text covers He/Con_1a and He/Con_2b for 9 molecules.

For one assay, the target named is T1, FcγRIa (human, UniProt P12314 16-292).
T1 construct: extracellular domain; Soluble extracellular domain with C-terminal His tag, used as analyte; also called FcgRI; CD64; not shown: His tag at the C terminus
As to the kind of experiment: SPR (Biacore), captured antibody, FcγR as analyte, relative binding. How it is done: (§1) The heterodimerized antibodies He Abs in which one of the H chains was introduced with an alteration were assayed for their binding activities to each activating FcγR and inhibitory FcγR according to the method described in Example 4. […] The activating FcγRs in FIGS. 26, 27, 28, and 29 are FcγRIa, FcγRIIa (R), FcγRIIa (H), and FcγRIIIa, respectively.
(§2) Analysis of interaction between objective antibody and the FcγR was carried out using Biacore T100 (GE Healthcare). HBS-EP+ (GE Healthcare) was used as the running buffer, and the measurement temperature was set to 25° C. Chips produced by immobilizing the antigen peptide by the amine coupling method to a Series S Sencor Chip CM5 (GE Healthcare), or alternatively, chips produced by allowing preliminarily biotinylated antigen peptides to interact with and immobilize onto a Series S Sensor Chip SA (certified) (GE Healthcare) were used. Antibodies of interest were captured onto an antigen peptide-immobilized chip, and allowed to interact to each FcγR diluted with running buffer. To regenerate and repeatedly use the chip, the antibodies captured on the chip were washed off by reacting 10 mM glycine-HCl, pH 1.5.
(In SPR one partner is held on a chip, and binding of the other changes the refractive index at the surface.)

Another assay deals with T2, FcγRIIb (human, UniProt P31994 43-217).
T2 construct: extracellular domain; Soluble extracellular domain with C-terminal His tag, used as analyte; also called FcgRIIb; CD32B; not shown: His tag at the C terminus
T2 sequence (looked up): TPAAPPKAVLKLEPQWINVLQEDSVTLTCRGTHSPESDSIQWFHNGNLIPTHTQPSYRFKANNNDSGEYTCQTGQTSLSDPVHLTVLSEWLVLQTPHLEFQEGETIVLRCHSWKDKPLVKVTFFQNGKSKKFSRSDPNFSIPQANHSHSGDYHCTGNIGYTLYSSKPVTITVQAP
Described as above. How it is done: as §1, §2

T1 sequence (P12314 16-292): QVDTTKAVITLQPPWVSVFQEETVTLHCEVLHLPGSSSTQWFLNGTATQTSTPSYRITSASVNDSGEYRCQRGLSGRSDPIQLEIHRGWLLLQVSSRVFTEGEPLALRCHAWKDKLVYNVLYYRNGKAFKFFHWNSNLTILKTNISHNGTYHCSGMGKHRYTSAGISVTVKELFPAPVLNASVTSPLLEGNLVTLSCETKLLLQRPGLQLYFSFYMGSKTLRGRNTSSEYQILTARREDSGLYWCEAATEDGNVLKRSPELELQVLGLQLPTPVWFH

B1: GpH7-A5/GpH7-B3 variant N325_02A/GpL16-k0 (antibody, human IgG1, kappa)
heavy 1: not shown
heavy 2: not shown
light: DIVMTQSPLSLPVTPGEPASISCQASESLVHSNRNTYLHWYLQKPGQSPQLLIYKVSNRFSGVPDRFSGSGSGTDFTLKISRVEAEDVGVYYCSQNTHVPPTFGQGTKVEIERTVAAPSVFIFPPSDEQLKSGTASVVCLLNNFYPREAKVQWKVDNALQSGNSQESVTEQDSKDSTYSLSSTLTLSKADYEKHKVYACEVTHQGLSSPVTKSFNRGEC
notes: He Ab: mutation in one H chain only; also called He Ab
In the case of B1, in the assay with FcγRIa, the He/Con_1a is 96.8 % of GpH7-A5/GpH7-B3/GpL16-k0. Moreover, in the assay with FcγRIIb, the He/Con_2b is 64.4 % of GpH7-A5/GpH7-B3/GpL16-k0.

B2: GpH7-A5/GpH7-B3 variant S298_10E/GpL16-k0 (antibody, human IgG1, kappa)
heavy 1: not shown
heavy 2: not shown
light: DIVMTQSPLSLPVTPGEPASISCQASESLVHSNRNTYLHWYLQKPGQSPQLLIYKVSNRFSGVPDRFSGSGSGTDFTLKISRVEAEDVGVYYCSQNTHVPPTFGQGTKVEIERTVAAPSVFIFPPSDEQLKSGTASVVCLLNNFYPREAKVQWKVDNALQSGNSQESVTEQDSKDSTYSLSSTLTLSKADYEKHKVYACEVTHQGLSSPVTKSFNRGEC
notes: as for B1
Regarding B2, in the assay with FcγRIa, the He/Con_1a is 108 % of GpH7-A5/GpH7-B3/GpL16-k0. The He/Con_2b in the assay with FcγRIIb was 47.6 % of GpH7-A5/GpH7-B3/GpL16-k0.

B3: GpH7-A5/GpH7-B3 variant S298_15Y/GpL16-k0 (antibody, human IgG1, kappa)
heavy 1: not shown
heavy 2: not shown
light: DIVMTQSPLSLPVTPGEPASISCQASESLVHSNRNTYLHWYLQKPGQSPQLLIYKVSNRFSGVPDRFSGSGSGTDFTLKISRVEAEDVGVYYCSQNTHVPPTFGQGTKVEIERTVAAPSVFIFPPSDEQLKSGTASVVCLLNNFYPREAKVQWKVDNALQSGNSQESVTEQDSKDSTYSLSSTLTLSKADYEKHKVYACEVTHQGLSSPVTKSFNRGEC
notes: as for B1
Turning to B3, the He/Con_1a in the assay with FcγRIa was 107 % of GpH7-A5/GpH7-B3/GpL16-k0. In addition, the He/Con_2b with FcγRIIb was 61.4 % of GpH7-A5/GpH7-B3/GpL16-k0.

B4: GpH7-A5/GpH7-B3 variant S298_19Q/GpL16-k0 (antibody, human IgG1, kappa)
heavy 1: not shown
heavy 2: not shown
light: DIVMTQSPLSLPVTPGEPASISCQASESLVHSNRNTYLHWYLQKPGQSPQLLIYKVSNRFSGVPDRFSGSGSGTDFTLKISRVEAEDVGVYYCSQNTHVPPTFGQGTKVEIERTVAAPSVFIFPPSDEQLKSGTASVVCLLNNFYPREAKVQWKVDNALQSGNSQESVTEQDSKDSTYSLSSTLTLSKADYEKHKVYACEVTHQGLSSPVTKSFNRGEC
notes: as for B1
B4: the He/Con_1a in the assay with FcγRIa was 109 % of GpH7-A5/GpH7-B3/GpL16-k0. In the assay with FcγRIIb, the He/Con_2b was 73.3 % of GpH7-A5/GpH7-B3/GpL16-k0.

B5: GpH7-A5/GpH7-B3 variant S298_11K/GpL16-k0 (antibody, human IgG1, kappa)
heavy 1: not shown
heavy 2: not shown
light: DIVMTQSPLSLPVTPGEPASISCQASESLVHSNRNTYLHWYLQKPGQSPQLLIYKVSNRFSGVPDRFSGSGSGTDFTLKISRVEAEDVGVYYCSQNTHVPPTFGQGTKVEIERTVAAPSVFIFPPSDEQLKSGTASVVCLLNNFYPREAKVQWKVDNALQSGNSQESVTEQDSKDSTYSLSSTLTLSKADYEKHKVYACEVTHQGLSSPVTKSFNRGEC
notes: as for B1
Take B5: the He/Con_1a in the assay with FcγRIa is 109 % of GpH7-A5/GpH7-B3/GpL16-k0. Further, the He/Con_2b in the assay with FcγRIIb was 61.3 % of GpH7-A5/GpH7-B3/GpL16-k0.

B6: GpH7-A5/GpH7-B3 variant N325_19Q/GpL16-k0 (antibody, human IgG1, kappa)
heavy 1: not shown
heavy 2: not shown
light: DIVMTQSPLSLPVTPGEPASISCQASESLVHSNRNTYLHWYLQKPGQSPQLLIYKVSNRFSGVPDRFSGSGSGTDFTLKISRVEAEDVGVYYCSQNTHVPPTFGQGTKVEIERTVAAPSVFIFPPSDEQLKSGTASVVCLLNNFYPREAKVQWKVDNALQSGNSQESVTEQDSKDSTYSLSSTLTLSKADYEKHKVYACEVTHQGLSSPVTKSFNRGEC
notes: as for B1
As to B6, the He/Con_1a with FcγRIa is 99.1 % of GpH7-A5/GpH7-B3/GpL16-k0. Moreover, the He/Con_2b with FcγRIIb was 69.1 % of GpH7-A5/GpH7-B3/GpL16-k0.

B7: GpH7-A5/GpH7-B3 variant S298_09D/GpL16-k0 (antibody, human IgG1, kappa)
heavy 1: not shown
heavy 2: not shown
light: DIVMTQSPLSLPVTPGEPASISCQASESLVHSNRNTYLHWYLQKPGQSPQLLIYKVSNRFSGVPDRFSGSGSGTDFTLKISRVEAEDVGVYYCSQNTHVPPTFGQGTKVEIERTVAAPSVFIFPPSDEQLKSGTASVVCLLNNFYPREAKVQWKVDNALQSGNSQESVTEQDSKDSTYSLSSTLTLSKADYEKHKVYACEVTHQGLSSPVTKSFNRGEC
notes: as for B1
As to B7, in the assay with FcγRIa, the He/Con_1a was 106 % of GpH7-A5/GpH7-B3/GpL16-k0. For the same molecule, the He/Con_2b in the assay with FcγRIIb is 48.3 % of GpH7-A5/GpH7-B3/GpL16-k0.

B8: GpH7-A5/GpH7-B3 variant S298_16H/GpL16-k0 (antibody, human IgG1, kappa)
heavy 1: not shown
heavy 2: not shown
light: DIVMTQSPLSLPVTPGEPASISCQASESLVHSNRNTYLHWYLQKPGQSPQLLIYKVSNRFSGVPDRFSGSGSGTDFTLKISRVEAEDVGVYYCSQNTHVPPTFGQGTKVEIERTVAAPSVFIFPPSDEQLKSGTASVVCLLNNFYPREAKVQWKVDNALQSGNSQESVTEQDSKDSTYSLSSTLTLSKADYEKHKVYACEVTHQGLSSPVTKSFNRGEC
notes: as for B1
Consider B8, for which the He/Con_1a in the assay with FcγRIa is 109 % of GpH7-A5/GpH7-B3/GpL16-k0. In the assay with FcγRIIb, the He/Con_2b was 63.5 % of GpH7-A5/GpH7-B3/GpL16-k0.

B9: GpH7-A5/GpH7-B3 variant N325_12R/GpL16-k0 (antibody, human IgG1, kappa)
heavy 1: not shown
heavy 2: not shown
light: DIVMTQSPLSLPVTPGEPASISCQASESLVHSNRNTYLHWYLQKPGQSPQLLIYKVSNRFSGVPDRFSGSGSGTDFTLKISRVEAEDVGVYYCSQNTHVPPTFGQGTKVEIERTVAAPSVFIFPPSDEQLKSGTASVVCLLNNFYPREAKVQWKVDNALQSGNSQESVTEQDSKDSTYSLSSTLTLSKADYEKHKVYACEVTHQGLSSPVTKSFNRGEC
notes: as for B1
With B9, in the assay with FcγRIa, the He/Con_1a is 84.2 % of GpH7-A5/GpH7-B3/GpL16-k0. For the same molecule, the He/Con_2b in the assay with FcγRIIb was 19.1 % of GpH7-A5/GpH7-B3/GpL16-k0.
